According to patent US20200277346A1 (GOVERNING COUNCIL OF THE UNIVERSITY OF TORONTO, published 2020):
Values belong to the binder of their own block, whether it stands above or below them.

Biological target: T1, Wild Type Ub (human, UniProt P0CG48 1-76)
T1 construct: native (tag-free) WT ubiquitin was the analyte in BLI; also called wt Ub; WT ubiquitin
Assay: ELISA on immobilized HECT domain
Procedure: Proteins in study were immobilized on 384-well MaxiSorp plates (Thermo Scientific 12665347) by adding 30 μL of 1 μM proteins for overnight incubation at 4° C. Phage and protein ELISA against immobilized proteins was performed as described (Ernst et al., 2013). Binding of phage was detected using anti-M13-HRP antibody (GE Healthcare 27942101) and binding of FLAG-tagged UbVs was detected using anti-FLAG-HRP antibody (Sigma-Aldrich A8592). […] EC₅₀ values were calculated using the GraphPad Prism software with the built-in equation formula (non-linear regression curve).

binding result: no binding
B1: HECW1 HECT domain (enzyme)
chain: not shown
notes: domain: HECT domain; His- and Avi-tagged for selection and ELISA

binding result: no binding
B2: EDD1 HECT domain (enzyme, human, UniProt O95071 2462-2799, looked up)
chain: LDLGLVDSSEKVQQENRKRHGSSRSVVDMDLDDTDDGDDNAPLFYQPGKRGFYTPRPGKNTEARLNCFRNIGRILGLCLLQNELCPITLNRHVIKVLLGRKVNWHDFAFFDPVMYESLRQLILASQSSDADAVFSAMDLAFAIDLCKEEGGGQVELIPNGVNIPVTPQNVYEYVRKYAEHRMLVVAEQPLHAMRKGLLDVLPKNSLEDLTAEDFRLLVNGCGEVNVQMLISFTSFNDESGENAEKLLQFKRWFWSIVEKMSMTERQDLVYFWTSSPSLPASEEGFQPMPSITIRPPDDQHLPTANTCISRLYVPLYSSKQILKQKLLLAIKTKNFGFV
notes: as for B1

binding result: no binding
B3: HERC6 HECT domain (enzyme, human, UniProt Q8IVU3 650-1022, looked up)
chain: KAYMLMHETILQKKDEFPPSPRFILRVRRSRLVKDALRQLSQAEATDFCKVLVVEFINEICPESGGVSSEFFHCMFEEMTKPEYGMFMYPEMGSCMWFPAKPKPEKKRYFLFGMLCGLSLFNLNVANLPFPLALYKKLLDQKPSLEDLKELSPRLGKSLQEVLDDAADDIGDALCIRFSIHWDQNDVDLIPNGISIPVDQTNKRDYVSKYIDYIFNVSVKAVYEEFQRGFYRVCEKEILRHFYPEELMTAIIGNTDYDWKQFEQNSKYEQGYQKSHPTIQLFWKAFHKLTLDEKKKFLFFLTGRDRLHARGIQKMEIVFRCPETFSERDHPTSITCHNILSLPKYSTMERMEEALQVAINNNRGFVSPMLTQS
notes: domain: HECT domain; His- and Avi-tagged for selection and ELISA; also called H6

binding result: no binding
B4: UBE3C HECT domain (enzyme, human, UniProt Q15386 693-1083, looked up)
chain: VPFEERVKIFQRLIYADKQEVQGDGPFLDGINVTIRRNYIYEDAYDKLSPENEPDLKKRIRVHLLNAHGLDEAGIDGGGIFREFLNELLKSGFNPNQGFFKTTNEGLLYPNPAAQMLVGDSFARHYYFLGRMLGKALYENMLVELPFAGFFLSKLLGTSADVDIHHLASLDPEVYKNLLFLKSYEDDVEELGLNFTVVNNDLGEAQVVELKFGGKDIPVTSANRIAYIHLVADYRLNRQIRQHCLAFRQGLANVVSLEWLRMFDQQEIQVLISGAQVPISLEDLKSFTNYSGGYSADHPVIKVFWRVVEGFTDEEKRKLLKFVTSCSRPPLLGFKELYPAFCIHNGGSDLERLPTASTCMNLLKLPEFYDETLLRSKLLYAIECAAGFELS
notes: as for B1

binding result: no binding
B5: HECW2 HECT domain (enzyme)
chain: not shown
notes: as for B1

binding result: no binding
B6: HACE1 HECT domain (enzyme, human, UniProt Q8IYU2 529-909, looked up)
chain: EWFYEHLHSGQPDSDMVHRPVNENDILLVHRDSIFRSSCEVVSKANCAKLKQGIAVRFHGEEGMGQGVVREWFDILSNEIVNPDYALFTQSADGTTFQPNSNSYVNPDHLNYFRFAGQILGLALNHRQLVNIYFTRSFYKHILGIPVNYQDVASIDPEYAKNLQWILDNDISDLGLELTFSVETDVFGAMEEVPLKPGGGSILVTQNNKAEYVQLVTELRMTRAIQPQINAFLQGFHMFIPPSLIQLFDEYELELLLSGMPEIDVSDWIKNTEYTSGYEREDPVIQWFWEVVEDITQEERVLLLQFVTGSSRVPHGGFANIMGGSGLQNFTIAAVPYTPNLLPTSSTCINMLKLPEYPSKEILKDRLLVALHCGSYGYTMA
notes: as for B1

binding result: no binding
B7: SMURF1 HECT domain (enzyme, human, UniProt Q9HCE7 374-757, looked up)
chain: YERDLVQKLKVLRHELSLQQPQAGHCRIEVSREEIFEESYRQIMKMRPKDLKKRLMVKFRGEEGLDYGGVAREWLYLLCHEMLNPYYGLFQYSTDNIYMLQINPDSSINPDHLSYFHFVGRIMGLAVFHGHYINGGFTVPFYKQLLGKPIQLSDLESVDPELHKSLVWILENDITPVLDHTFCVEHNAFGRILQHELKPNGRNVPVTEENKKEYVRLYVNWRFMRGIEAQFLALQKGFNELIPQHLLKPFDQKELELIIGGLDKIDLNDWKSNTRLKHCVADSNIVRWFWQAVETFDEERRARLLQFVTGSTRVPLQGFKALQGSTGAAGPRLFTIHLIDANTDNLPKAHTCFNRIDIPPYESYEKLYEKLLTAVEETCGFAVE
notes: domain: HECT domain; His- and Avi-tagged for selection and ELISA; also called S1

binding result: no binding
B8: HERC4 HECT domain (enzyme, human, UniProt Q5GLZ8 685-1057, looked up)
chain: AIDQAHRQNVSSLFLPVIESVNPCLILVVRRENIVGDAMEVLRKTKNIDYKKPLKVIFVGEDAVDAGGVRKEFFLLIMRELLDPKYGMFRYYEDSRLIWFSDKTFEDSDLFHLIGVICGLAIYNCTIVDLHFPLALYKKLLKKKPSLDDLKELMPDVGRSMQQLLDYPEDDIEETFCLNFTITVENFGATEVKELVLNGADTAVNKQNRQEFVDAYVDYIFNKSVASLFDAFHAGFHKVCGGKVLLLFQPNELQAMVIGNTNYDWKELEKNTEYKGEYWAEHPTIKIFWEVFHELPLEKKKQFLLFLTGSDRIPILGMKSLKLVIQSTGGGEEYLPVSHTCFNLLDLPKYTEKETLRSKLIQAIDHNEGFSLI
notes: domain: HECT domain; His- and Avi-tagged for selection and ELISA; also called H4

binding result: no binding
B9: HUWE1 HECT domain (enzyme, human, UniProt Q7Z6Z7 3993-4374, looked up)
chain: DFDVKRKYFRQELERLDEGLRKEDMAVHVRRDHVFEDSYRELHRKSPEEMKNRLYIVFEGEEGQDAGGLLREWYMIISREMFNPMYALFRTSPGDRVTYTINPSSHCNPNHLSYFKFVGRIVAKAVYDNRLLECYFTRSFYKHILGKSVRYTDMESEDYHFYQGLVYLLENDVSTLGYDLTFSTEVQEFGVCEVRDLKPNGANILVTEENKKEYVHLVCQMRMTGAIRKQLAAFLEGFYEIIPKRLISIFTEQELELLISGLPTIDIDDLKSNTEYHKYQSNSIQIQWFWRALRSFDQADRAKFLQFVTGTSKVPLQGFAALEGMNGIQKFQIHRDDRSTDRLPSAHTCFNQLDLPAYESFEKLRHMLLLAIQECSEGFGLA
notes: as for B1

binding result: no binding
B10: KIAA0317 HECT domain (enzyme, human, UniProt O15033 436-823, looked up)
chain: SETFQDKVNFFQRELRQVHMKRPHSKVTLKVSRHALLESSLKATRNFSISDWSKNFEVVFQDEEALDWGGPRREWFELICKALFDTTNQLFTRFSDNNQALVHPNPNRPAHLRLKMYEFAGRLVGKCLYESSLGGAYKQLVRARFTRSFLAQIIGLRMHYKYFETDDPEFYKSKVCFILNNDMSEMELVFAEEKYNKSGQLDKVVELMTGGAQTPVTNANKIFYLNLLAQYRLASQVKEEVEHFLKGLNELVPENLLAIFDENELELLMCGTGDISVSDFKAHAVVVGGSWHFREKVMRWFWTVVSSLTQEELARLLQFTTGSSQLPPGGFAALCPSFQIIAAPTHSTLPTAHTCFNQLCLPTYDSYEEVHRMLQLAISEGCEGFGML
notes: as for B1

binding result: no binding
B11: HERC2 HECT domain (enzyme, human, UniProt O95714 4412-4834, looked up)
chain: RQHGPVVELNRIQVKRSRSKGGLAGPDGTKSVFGQMCAKMSSFGPDSLLLPHRVWKVKFVGESVDDCGGGYSESIAEICEELQNGLTPLLIVTPNGRDESGANRDCYLLSPAARAPVHSSMFRFLGVLLGIAIRTGSPLSLNLAEPVWKQLAGMSLTIADLSEVDKDFIPGLMYIRDNEATSEEFEAMSLPFTVPSASGQDIQLSSKHTHITLDNRAEYVRLAINYRLHEFDEQVAAVREGMARVVPVPLLSLFTGYELETMVCGSPDIPLHLLKSVATYKGIEPSASLIQWFWEVMESFSNTERSLFLRFVWGRTRLPRTIADFRGRDFVIQVLDKYNPPDHFLPESYTCFFLLKLPRYSCKQVLEEKLKYAIHFCKSIDTDDYARIALTGEPAADDSSDDSDNEDVDSFASDSTQDYLTGH
notes: domain: HECT domain; His- and Avi-tagged for selection and ELISA; also called H2

binding result: no binding
B12: HECTD1 HECT domain (enzyme, human, UniProt Q9ULT8 2151-2610, looked up)
chain: IHADRKSVLEVEFLGEEGTGLGPTLEFYALVAAEFQRTDLGAWLCDDNFPDDESRHVDLGGGLKPPGYYVQRSCGLFTAPFPQDSDELERITKLFHFLGIFLAKCIQDNRLVDLPISKPFFKLMCMGDIKSNMSKLIYESRGDRDLHCTESQSEASTEEGHDSLSVGSFEEDSKSEFILDPPKPKPPAWFNGILTWEDFELVNPHRARFLKEIKDLAIKRRQILSNKGLSEDEKNTKLQELVLKNPSGSGPPLSIEDLGLNFQFCPSSRIYGFTAVDLKPSGEDEMITMDNAEEYVDLMFDFCMHTGIQKQMEAFRDGFNKVFPMEKLSSFSHEEVQMILCGNQSPSWAAEDIINYTEPKLGYTRDSPGFLRFVRVLCGMSSDERKAFLQFTTGCSTLPPGGLANLHPRLTVVRKVDATDASYPSVNTCVHYLKLPEYSSEEIMRERLLAATMEKGFHLN
notes: as for B1

binding result: no binding
B13: HERC1 HECT domain (enzyme, human, UniProt Q15751 4460-4861, looked up)
chain: IGKTMVQGKNYGPQITVKRISTRGRKCKPIFVQIARQVVKLNASDLRLPSRAWKVKLVGEGADDAGGVFDDTITEMCQELETGIVDLLIPSPNATAEVGYNRDRFLFNPSACLDEHLMQFKFLGILMGVAIRTKKPLDLHLAPLVWKQLCCVPLTLEDLEEVDLLYVQTLNSILHIEDSGITEESFHEMIPLDSFVGQSADGKMVPIIPGGNSIPLTFSNRKEYVERAIEYRLHEMDRQVAAVREGMSWIVPVPLLSLLTAKQLEQMVCGMPEISVEVLKKVVRYREVDEQHQLVQWFWHTLEEFSNEERVLFMRFVSGRSRLPANTADISQRFQIMKVDRPYDSLPTSQTCFFQLRLPPYSSQLVMAERLRYAINNCRSIDMDNYMLSRNVDNAEGSDTDY
notes: domain: HECT domain; His- and Avi-tagged for selection and ELISA; also called H1
